Assay results from paper doi:10.1101/2024.07.24.604955, “Unraveling the Role of Ctla-4 in Intestinal Immune Homeostasis: Insights from a novel Zebrafish Model of Inflammatory Bowel Disease” (bioRxiv, 2024).

Legend:
[1] = target: T1, Ctla-4 with EGFP-tag (labeled protein of the MST assay) (zebrafish); assay: MST; Monolith NT.115; labeled proteins (Cd28/Ctla-4 with EGFP-tag) incubated with 16 doubling dilutions of unlabeled Cd80/86 from 3.2 µM, 10 min at room temperature; 25℃, 40% LED, medium MST power
T1 construct: zebrafish Ctla-4 (XM_005167519.4)
T1 sequence (partner, as listed by the source): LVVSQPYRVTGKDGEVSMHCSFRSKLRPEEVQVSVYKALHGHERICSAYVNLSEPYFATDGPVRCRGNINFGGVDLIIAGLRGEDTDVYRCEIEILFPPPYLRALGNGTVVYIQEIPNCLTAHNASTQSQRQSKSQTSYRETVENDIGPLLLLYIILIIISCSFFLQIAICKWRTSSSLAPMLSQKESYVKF

[2] = target: T2, Cd28 with EGFP-tag (labeled protein of the MST assay) (zebrafish); assay: as above
T2 construct: zebrafish Cd28; identifier not given
T2 sequence (partner, as listed by the source): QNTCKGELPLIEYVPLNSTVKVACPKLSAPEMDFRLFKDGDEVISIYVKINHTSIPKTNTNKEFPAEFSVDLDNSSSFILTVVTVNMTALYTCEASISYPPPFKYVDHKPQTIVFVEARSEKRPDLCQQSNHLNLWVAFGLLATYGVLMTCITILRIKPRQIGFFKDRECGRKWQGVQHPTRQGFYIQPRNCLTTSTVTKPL

- Kd [1]: 0.5 µM
- Kd [2]: 2.64 µM
B1: soluble Cd80/86 (extracellular domain) (domain or fragment)
chain: DNSQPKNISAVVGRSVTFRCPWNLSIPVYRLYIQKLENQPLFINGFNNGKKLPVSPEYQDRTEVNQAELSMEMTNIKLSDEGSYECVVFSSTSSRDIFQINLKVTAEFTTPESKSECSENDGAKKGRSCQMSCSAAGGYPVSDVKWLGLNQSRIRVLQNETAENSTSKTWSVNQTINYTCEHPINVSCDIGGSDSHTITICEAESFPLK
